Laboratory results published in patent US20240270821A1, “GIP/GLP1/GCG TRI-RECEPTOR AGONISTS AND USES THEREOF” (priority 2023, published 2024).
Non-standard residues stand in square brackets, D forms with d. No end group written: not given here. Phe(4-CN) = N#Cc1ccc(C[C@H](N)C(=O)O)cc1; αMePhe(2-F) = C[C@](N)(Cc1ccccc1F)C(=O)O; αMeL = CC(C)C[C@](C)(N)C(=O)O; Aib = CC(C)(N)C(=O)O

B1: Example 343 (peptide)
chain: YXQGTFTSDYSKXLDKKAQXAFVQWLLEGGPSSGEPPPSEG
modifications: not fully specified; synthetic construct; SITE 2: note = 2-Aminoisobutyric Acid; SITE 13: note = alpha-methyl-leucine; SITE 17: note = Lysine is chemically modified through conjugation of the epsilon-amino group of the Lysine side chain with (2-[2-(2-Amino-ethoxy)-ethoxy]-acetyl)-(gamma-Glu)-CO-(CH2) 18-CO2H; SITE 20: n
B2: Example 347 (peptide)
chain: YXQGTXTSDXSILLDKQAQKAFIEYLLEGGPSSGEPPPSEG
modifications: not fully specified; synthetic construct; SITE 2: note = 2-Aminoisobutyric Acid; SITE 6: note = alpha-methyl-2-fluoro-L-phenylalanine; SITE 10: note = 3-(4-Pyridyl)-L-alanine; SITE 20: note = Lysine is chemically modified through conjugation of the epsilon-amino group of the Lysine side chain with (2-[2-(2-Amino-ethoxy))

molecular target: hGLP-1R (Homo sapiens, UniProt P43220); assay: cell-based or functional assay
Sequence (P43220 24-463): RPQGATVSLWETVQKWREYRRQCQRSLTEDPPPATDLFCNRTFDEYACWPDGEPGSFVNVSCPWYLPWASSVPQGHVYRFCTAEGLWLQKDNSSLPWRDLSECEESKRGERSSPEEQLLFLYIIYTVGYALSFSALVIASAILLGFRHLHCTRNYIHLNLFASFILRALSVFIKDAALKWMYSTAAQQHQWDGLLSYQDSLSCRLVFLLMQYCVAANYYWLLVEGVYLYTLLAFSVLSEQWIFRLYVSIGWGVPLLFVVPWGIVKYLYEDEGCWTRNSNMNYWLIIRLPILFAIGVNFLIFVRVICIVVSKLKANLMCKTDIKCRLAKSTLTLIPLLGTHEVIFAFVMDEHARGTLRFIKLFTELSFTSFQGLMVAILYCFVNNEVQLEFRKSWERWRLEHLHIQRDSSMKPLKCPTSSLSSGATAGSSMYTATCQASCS

| Binder | Relative cAMP EC50 | cAMP Rel EC50 (1% HSA) | cAMP Rel EC50, nM (1% HSA) |
| --- | --- | --- | --- |
| Y[Aib]QGTFTSDYSK[αMeL]LDKKAQQAFVQWLIE[dA]GPSSGEPPPSEG-NH2 (not fully specified (residue 17)) [Example 342] | 0.419 nM | 62 nM | – |
| B1 | 1.31 nM | 178 nM | – |
| Y[Aib]QGTFTSDYSK[αMeL]LDKKAQQAFIEYLLAGGPSSGEPPPSGE-NH2 (not fully specified (residue 17)) [Example 344] | 2.56 nM | 523 nM | – |
| Y[Aib]QGT[αMePhe(2-F)]TSDYSILLDKQAQKAFIEYLLEGGPSSGEPPPSEG-NH2 (not fully specified (residue 20)) [Example 345] | 0.658 nM | 256 nM | – |
| Y[Aib]QGT[αMePhe(2-F)]TSDFSILLDKQAQKAFIEYLLEGGPSSGEPPPSEG-NH2 (not fully specified (residue 20)) [Example 346] | 1.17 nM | 514 nM | – |
| B2 | 0.798 nM | – | 254 nM |
| Y[Aib]QGT[αMePhe(2-F)]TSDYSILLDKQAAKEFIEYLIEGGPSSGEPPPSEG-NH2 (not fully specified (residue 20)) [Example 348] | 0.346 nM | – | 136 nM |
| Y[Aib]QGTFTSDYSI[αMeL]LDKQAAKQFIEYLIA[Aib]GPSSGEPPPSEG-NH2 (not fully specified (residue 20)) [Example 349] | 0.555 nM | – | 218 nM |
| Y[Aib]QGT[αMePhe(2-F)]TSD[Phe(4-CN)]SILLDKQAQKAFIEYLLEGGPSSGEPPPSAG-NH2 (not fully specified (residue 20)) [Example 350] | 0.776 nM | – | 360 nM |
| Y[Aib]QGT[αMePhe(2-F)]TSDYSILLDAQAAKEFIEYLIEGGPSSGEPPPSEG-NH2 (not fully specified (residue 20)) [Example 351] | 0.679 nM | – | 272 nM |
| Y[Aib]QGT[αMePhe(2-F)]TSD[Phe(4-CN)]SILLDKQAQKAFIEYLLEGGPSSGEPPPSEG-NH2 (not fully specified (residue 20)) [Example 352] | 0.967 nM | – | 407 nM |
| Y[Aib]QGT[αMePhe(2-F)]TSD[Phe(4-CN)]SILLDKQAQKAFIQYLLEGGPSSGEPPPSEG-NH2 (not fully specified (residue 20)) [Example 353] | 0.634 nM | – | 222 nM |

molecular target: T1, human GIP receptor (human) (UniProt P48546); assay: cell-based or functional assay
T1 sequence (looked up): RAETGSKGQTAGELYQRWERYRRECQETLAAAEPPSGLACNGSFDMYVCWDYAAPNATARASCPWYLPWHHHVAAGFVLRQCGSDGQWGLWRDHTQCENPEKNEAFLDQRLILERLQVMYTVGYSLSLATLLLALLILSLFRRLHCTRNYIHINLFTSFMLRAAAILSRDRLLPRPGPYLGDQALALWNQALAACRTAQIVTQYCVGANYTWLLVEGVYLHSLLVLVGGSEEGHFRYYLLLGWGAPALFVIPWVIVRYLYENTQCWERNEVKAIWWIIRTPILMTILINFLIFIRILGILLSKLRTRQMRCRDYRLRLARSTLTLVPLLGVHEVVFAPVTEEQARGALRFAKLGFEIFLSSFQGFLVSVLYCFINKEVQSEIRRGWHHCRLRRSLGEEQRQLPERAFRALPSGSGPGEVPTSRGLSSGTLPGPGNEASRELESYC

| Binder | Relative cAMP EC50 | cAMP Rel EC50 (1% HSA) | cAMP Rel EC50, nM (1% HSA) |
| --- | --- | --- | --- |
| Y[Aib]QGTFTSDYSK[αMeL]LDKKAQQAFVQWLIE[dA]GPSSGEPPPSEG-NH2 (not fully specified (residue 17)) [Example 342] | 0.347 nM | 71.3 nM | – |
| B1 | 0.184 nM | 16.7 nM | – |
| Y[Aib]QGTFTSDYSK[αMeL]LDKKAQQAFIEYLLAGGPSSGEPPPSGE-NH2 (not fully specified (residue 17)) [Example 344] | 0.406 nM | 70.7 nM | – |
| Y[Aib]QGT[αMePhe(2-F)]TSDYSILLDKQAQKAFIEYLLEGGPSSGEPPPSEG-NH2 (not fully specified (residue 20)) [Example 345] | 0.0377 nM | 15.3 nM | – |
| Y[Aib]QGT[αMePhe(2-F)]TSDFSILLDKQAQKAFIEYLLEGGPSSGEPPPSEG-NH2 (not fully specified (residue 20)) [Example 346] | 0.0738 nM | 28.3 nM | – |
| B2 | 0.0634 nM | – | 17.3 nM |
| Y[Aib]QGT[αMePhe(2-F)]TSDYSILLDKQAAKEFIEYLIEGGPSSGEPPPSEG-NH2 (not fully specified (residue 20)) [Example 348] | 0.127 nM | – | 36.4 nM |
| Y[Aib]QGTFTSDYSI[αMeL]LDKQAAKQFIEYLIA[Aib]GPSSGEPPPSEG-NH2 (not fully specified (residue 20)) [Example 349] | 0.152 nM | – | 52.6 nM |
| Y[Aib]QGT[αMePhe(2-F)]TSD[Phe(4-CN)]SILLDKQAQKAFIEYLLEGGPSSGEPPPSAG-NH2 (not fully specified (residue 20)) [Example 350] | 0.106 nM | – | 33.6 nM |
| Y[Aib]QGT[αMePhe(2-F)]TSDYSILLDAQAAKEFIEYLIEGGPSSGEPPPSEG-NH2 (not fully specified (residue 20)) [Example 351] | 0.243 nM | – | 57.5 nM |
| Y[Aib]QGT[αMePhe(2-F)]TSD[Phe(4-CN)]SILLDKQAQKAFIEYLLEGGPSSGEPPPSEG-NH2 (not fully specified (residue 20)) [Example 352] | 0.245 nM | – | 34.1 nM |
| Y[Aib]QGT[αMePhe(2-F)]TSD[Phe(4-CN)]SILLDKQAQKAFIQYLLEGGPSSGEPPPSEG-NH2 (not fully specified (residue 20)) [Example 353] | 0.127 nM | – | 53.7 nM |

molecular target: human glucagon receptor (human) (UniProt P47871); assay: cell-based or functional assay
Sequence (P47871 26-477): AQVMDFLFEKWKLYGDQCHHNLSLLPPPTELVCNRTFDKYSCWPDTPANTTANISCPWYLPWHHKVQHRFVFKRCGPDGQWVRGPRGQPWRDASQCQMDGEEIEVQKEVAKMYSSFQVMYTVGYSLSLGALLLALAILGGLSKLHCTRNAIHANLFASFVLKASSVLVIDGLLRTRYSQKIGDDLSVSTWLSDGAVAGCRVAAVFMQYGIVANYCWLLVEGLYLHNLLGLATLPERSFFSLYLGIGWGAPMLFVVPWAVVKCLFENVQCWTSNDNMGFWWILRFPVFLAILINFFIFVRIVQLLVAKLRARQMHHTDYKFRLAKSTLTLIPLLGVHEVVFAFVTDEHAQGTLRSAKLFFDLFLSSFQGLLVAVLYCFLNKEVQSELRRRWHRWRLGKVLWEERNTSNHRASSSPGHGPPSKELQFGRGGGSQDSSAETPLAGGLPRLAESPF

| Binder | Relative cAMP EC50 | cAMP Rel EC50 (1% HSA) | cAMP Rel EC50, nM (1% HSA) |
| --- | --- | --- | --- |
| Y[Aib]QGTFTSDYSK[αMeL]LDKKAQQAFVQWLIE[dA]GPSSGEPPPSEG-NH2 (not fully specified (residue 17)) [Example 342] | 10.2 nM | 2130 nM | – |
| B1 | 6.83 nM | 475 nM | – |
| Y[Aib]QGTFTSDYSK[αMeL]LDKKAQQAFIEYLLAGGPSSGEPPPSGE-NH2 (not fully specified (residue 17)) [Example 344] | 9.05 nM | 1440 nM | – |
| Y[Aib]QGT[αMePhe(2-F)]TSDYSILLDKQAQKAFIEYLLEGGPSSGEPPPSEG-NH2 (not fully specified (residue 20)) [Example 345] | 11.3 nM | 3300 nM | – |
| Y[Aib]QGT[αMePhe(2-F)]TSDFSILLDKQAQKAFIEYLLEGGPSSGEPPPSEG-NH2 (not fully specified (residue 20)) [Example 346] | 15.6 nM | 4310 nM | – |
| B2 | 8.88 nM | – | 3650 nM |
| Y[Aib]QGT[αMePhe(2-F)]TSDYSILLDKQAAKEFIEYLIEGGPSSGEPPPSEG-NH2 (not fully specified (residue 20)) [Example 348] | 3.9 nM | – | 1250 nM |
| Y[Aib]QGTFTSDYSI[αMeL]LDKQAAKQFIEYLIA[Aib]GPSSGEPPPSEG-NH2 (not fully specified (residue 20)) [Example 349] | 5.12 nM | – | 2280 nM |
| Y[Aib]QGT[αMePhe(2-F)]TSD[Phe(4-CN)]SILLDKQAQKAFIEYLLEGGPSSGEPPPSAG-NH2 (not fully specified (residue 20)) [Example 350] | 10.4 nM | – | 3760 nM |
| Y[Aib]QGT[αMePhe(2-F)]TSDYSILLDAQAAKEFIEYLIEGGPSSGEPPPSEG-NH2 (not fully specified (residue 20)) [Example 351] | 12.1 nM | – | 2470 nM |
| Y[Aib]QGT[αMePhe(2-F)]TSD[Phe(4-CN)]SILLDKQAQKAFIEYLLEGGPSSGEPPPSEG-NH2 (not fully specified (residue 20)) [Example 352] | 16.4 nM | – | 4020 nM |
| Y[Aib]QGT[αMePhe(2-F)]TSD[Phe(4-CN)]SILLDKQAQKAFIQYLLEGGPSSGEPPPSEG-NH2 (not fully specified (residue 20)) [Example 353] | 11 nM | – | 3080 nM |
